test system: Escherichia coli TOP10; test: shrunken log2 fold change of peptide-encoding DNA abundance (4.5 h post-induction vs induction); higher = less antimicrobial activity (less host growth inhibition); conditions: time post-induction: 4.5 h; library: site-saturation at positions 5, 18, 19, 20
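Also: peptides expressed intracellularly from a pBAD plasmid library in pooled LB shake-flask culture, induced with 0.3% L-arabinose, DNA abundance read by NGS, three biological replicates, DESeq2 with apeglm shrinkage.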

Row | Sequence | shrunken log2 fold change
1 | RRIRVRPPRLPRPRPRPDCKPRP | -0.104
2 | RRIRVRPPRLPRPRPRPDCTPRP | -0.068
3 | RRIRVRPPRLPRPRPRPDCVPRP | 0.0012
4 | RRIRVRPPRLPRPRPRPDEHPRP | 0.0107
5 | RRIRVRPPRLPRPRPRPDGAPRP | 0.413
6 | RRIRVRPPRLPRPRPRPDGMPRP | -0.454
7 | RRIRVRPPRLPRPRPRPDHEPRP | -0.0524
8 | RRIRVRPPRLPRPRPRPDHRPRP | -0.272
9 | RRIRVRPPRLPRPRPRPDHWPRP | 0.152
10 | RRIRVRPPRLPRPRPRPDKEPRP | 0.000945
11 | RRIRVRPPRLPRPRPRPDKMPRP | -0.0822
12 | RRIRVRPPRLPRPRPRPDLRPRP | -0.0613
13 | RRIRVRPPRLPRPRPRPDMKPRP | 0.0218
14 | RRIRVRPPRLPRPRPRPDMTPRP | -0.0435
15 | RRIRVRPPRLPRPRPRPDNPPRP | -0.101
16 | RRIRVRPPRLPRPRPRPDNSPRP | -0.202
17 | RRIRVRPPRLPRPRPRPDNTPRP | -0.426
18 | RRIRVRPPRLPRPRPRPDPWPRP | 0.131
19 | RRIRVRPPRLPRPRPRPDQIPRP | -0.0895
20 | RRIRVRPPRLPRPRPRPDQQPRP | 0.021
21 | RRIRVRPPRLPRPRPRPDQRPRP | 0.128
22 | RRIRVRPPRLPRPRPRPDQVPRP | -0.202
23 | RRIRVRPPRLPRPRPRPDRIPRP | -0.135
24 | RRIRVRPPRLPRPRPRPDRLPRP | 0.314
25 | RRIRVRPPRLPRPRPRPDRMPRP | -0.268

Row | Sequence | shrunken log2 fold change
26 | RRIRVRPPRLPRPRPRPDRVPRP | -0.285
27 | RRIRVRPPRLPRPRPRPDSEPRP | -0.105
28 | RRIRVRPPRLPRPRPRPDSRPRP | 0.0857
29 | RRIRVRPPRLPRPRPRPDSWPRP | -0.0688
30 | RRIRVRPPRLPRPRPRPDVKPRP | -0.0375
31 | RRIRVRPPRLPRPRPRPDWTPRP | 0.00219
32 | RRIRVRPPRLPRPRPRPEAIPRP | -0.0125
33 | RRIRVRPPRLPRPRPRPECMPRP | 0.283
34 | RRIRVRPPRLPRPRPRPECNPRP | -0.195
35 | RRIRVRPPRLPRPRPRPECYPRP | -0.035
36 | RRIRVRPPRLPRPRPRPEDKPRP | -0.00975
37 | RRIRVRPPRLPRPRPRPEEIPRP | -0.0172
38 | RRIRVRPPRLPRPRPRPEEYPRP | -0.411
39 | RRIRVRPPRLPRPRPRPEGEPRP | 0.171
40 | RRIRVRPPRLPRPRPRPEHAPRP | 0.0467
41 | RRIRVRPPRLPRPRPRPEHGPRP | -0.219
42 | RRIRVRPPRLPRPRPRPEIKPRP | -0.107
43 | RRIRVRPPRLPRPRPRPEITPRP | -0.159
44 | RRIRVRPPRLPRPRPRPEKCPRP | 0.0903
45 | RRIRVRPPRLPRPRPRPELQPRP | -0.0355
46 | RRIRVRPPRLPRPRPRPEMIPRP | -0.0397
47 | RRIRVRPPRLPRPRPRPENQPRP | -0.008
48 | RRIRVRPPRLPRPRPRPENTPRP | -0.0389
49 | RRIRVRPPRLPRPRPRPEPCPRP | -0.0507
50 | RRIRVRPPRLPRPRPRPEQEPRP | -0.0189

Row | Sequence | shrunken log2 fold change
51 | RRIRVRPPRLPRPRPRPEQFPRP | 0.0357
52 | RRIRVRPPRLPRPRPRPETLPRP | -0.223
53 | RRIRVRPPRLPRPRPRPEWFPRP | -0.154
54 | RRIRVRPPRLPRPRPRPEWRPRP | 0.212
55 | RRIRVRPPRLPRPRPRPEYDPRP | -0.0844
56 | RRIRVRPPRLPRPRPRPEYHPRP | -0.287
57 | RRIRVRPPRLPRPRPRPEYMPRP | -0.305
58 | RRIRVRPPRLPRPRPRPEYPPRP | -0.322
59 | RRIRVRPPRLPRPRPRPFFEPRP | 0.142
60 | RRIRVRPPRLPRPRPRPFFMPRP | -0.339
61 | RRIRVRPPRLPRPRPRPFICPRP | -0.331
62 | RRIRVRPPRLPRPRPRPFILPRP | -0.384
63 | RRIRVRPPRLPRPRPRPFIVPRP | -0.285
64 | RRIRVRPPRLPRPRPRPFKCPRP | -0.0453
65 | RRIRVRPPRLPRPRPRPFKKPRP | -0.115
66 | RRIRVRPPRLPRPRPRPFKVPRP | -0.243
67 | RRIRVRPPRLPRPRPRPFLAPRP | -0.219
68 | RRIRVRPPRLPRPRPRPFQLPRP | 0.142
69 | RRIRVRPPRLPRPRPRPFSEPRP | -0.237
70 | RRIRVRPPRLPRPRPRPFSHPRP | -0.358
71 | RRIRVRPPRLPRPRPRPFSIPRP | -0.349
72 | RRIRVRPPRLPRPRPRPFSPPRP | -0.363
73 | RRIRVRPPRLPRPRPRPFSWPRP | -0.144
74 | RRIRVRPPRLPRPRPRPFTAPRP | -0.317
75 | RRIRVRPPRLPRPRPRPFVFPRP | -0.0359

Row | Sequence | shrunken log2 fold change
76 | RRIRVRPPRLPRPRPRPFVIPRP | -0.477
77 | RRIRVRPPRLPRPRPRPGANPRP | 0.222
78 | RRIRVRPPRLPRPRPRPGARPRP | 0.198
79 | RRIRVRPPRLPRPRPRPGAVPRP | 0.481
80 | RRIRVRPPRLPRPRPRPGCAPRP | 0.757
81 | RRIRVRPPRLPRPRPRPGDGPRP | 0.532
82 | RRIRVRPPRLPRPRPRPGDLPRP | -0.211
83 | RRIRVRPPRLPRPRPRPGFNPRP | -0.0909
84 | RRIRVRPPRLPRPRPRPGGVPRP | 0.224
85 | RRIRVRPPRLPRPRPRPGHYPRP | -0.125
86 | RRIRVRPPRLPRPRPRPGIGPRP | 0.344
87 | RRIRVRPPRLPRPRPRPGIHPRP | -0.118
88 | RRIRVRPPRLPRPRPRPGITPRP | -0.238
89 | RRIRVRPPRLPRPRPRPGKAPRP | -0.00584
90 | RRIRVRPPRLPRPRPRPGKNPRP | -0.22
91 | RRIRVRPPRLPRPRPRPGKTPRP | 0.0999
92 | RRIRVRPPRLPRPRPRPGLRPRP | 0.663
93 | RRIRVRPPRLPRPRPRPGMCPRP | 0.00908
94 | RRIRVRPPRLPRPRPRPGMFPRP | -0.132
95 | RRIRVRPPRLPRPRPRPGPMPRP | 0.189
96 | RRIRVRPPRLPRPRPRPGPNPRP | 0.0445
97 | RRIRVRPPRLPRPRPRPGRWPRP | 0.649
98 | RRIRVRPPRLPRPRPRPGSNPRP | 0.0377
99 | RRIRVRPPRLPRPRPRPGSYPRP | -0.186
100 | RRIRVRPPRLPRPRPRPGVAPRP | 0.377

Row | Sequence | shrunken log2 fold change
101 | RRIRVRPPRLPRPRPRPGVQPRP | -0.0209
102 | RRIRVRPPRLPRPRPRPGWDPRP | 0.243
103 | RRIRVRPPRLPRPRPRPGWHPRP | 0.132
104 | RRIRVRPPRLPRPRPRPGWRPRP | 0.49
105 | RRIRVRPPRLPRPRPRPGYLPRP | -0.14
106 | RRIRVRPPRLPRPRPRPGYWPRP | 0.0156
107 | RRIRVRPPRLPRPRPRPHAGPRP | 0.108
108 | RRIRVRPPRLPRPRPRPHAMPRP | -0.18
109 | RRIRVRPPRLPRPRPRPHATPRP | 0.204
110 | RRIRVRPPRLPRPRPRPHCEPRP | -0.0141
111 | RRIRVRPPRLPRPRPRPHDKPRP | -0.123
112 | RRIRVRPPRLPRPRPRPHEQPRP | -0.163
113 | RRIRVRPPRLPRPRPRPHHAPRP | -0.0431
114 | RRIRVRPPRLPRPRPRPHKRPRP | 0.06
115 | RRIRVRPPRLPRPRPRPHLAPRP | 0.101
116 | RRIRVRPPRLPRPRPRPHLLPRP | -0.272
117 | RRIRVRPPRLPRPRPRPHLWPRP | -0.0616
118 | RRIRVRPPRLPRPRPRPHMQPRP | 0.0906
119 | RRIRVRPPRLPRPRPRPHNAPRP | -0.164
120 | RRIRVRPPRLPRPRPRPHPCPRP | 0.106
121 | RRIRVRPPRLPRPRPRPHPWPRP | 0.0927
122 | RRIRVRPPRLPRPRPRPHQCPRP | 0.00485
123 | RRIRVRPPRLPRPRPRPHRCPRP | 0.0572
124 | RRIRVRPPRLPRPRPRPHSRPRP | 0.0978
125 | RRIRVRPPRLPRPRPRPHTEPRP | -0.042

Row | Sequence | shrunken log2 fold change
126 | RRIRVRPPRLPRPRPRPHTNPRP | -0.471
127 | RRIRVRPPRLPRPRPRPHWTPRP | -0.045
128 | RRIRVRPPRLPRPRPRPHWWPRP | 0.355
129 | RRIRVRPPRLPRPRPRPHYTPRP | -0.169
130 | RRIRVRPPRLPRPRPRPICAPRP | -0.167
131 | RRIRVRPPRLPRPRPRPICGPRP | 0.0607
132 | RRIRVRPPRLPRPRPRPICNPRP | -0.183
133 | RRIRVRPPRLPRPRPRPIEEPRP | -0.181
134 | RRIRVRPPRLPRPRPRPIFCPRP | 0.078
135 | RRIRVRPPRLPRPRPRPIFMPRP | -0.363
136 | RRIRVRPPRLPRPRPRPIFPPRP | 0.199
137 | RRIRVRPPRLPRPRPRPIIIPRP | -0.235
138 | RRIRVRPPRLPRPRPRPIKDPRP | 0.0334
139 | RRIRVRPPRLPRPRPRPIKHPRP | -0.505
140 | RRIRVRPPRLPRPRPRPIKWPRP | -0.161
141 | RRIRVRPPRLPRPRPRPIMCPRP | 0.0128
142 | RRIRVRPPRLPRPRPRPIMMPRP | -0.0138
143 | RRIRVRPPRLPRPRPRPINDPRP | 0.0664
144 | RRIRVRPPRLPRPRPRPIPDPRP | -0.0692
145 | RRIRVRPPRLPRPRPRPIPKPRP | -0.131
146 | RRIRVRPPRLPRPRPRPIQEPRP | -0.169
147 | RRIRVRPPRLPRPRPRPIQTPRP | -0.0164
148 | RRIRVRPPRLPRPRPRPISSPRP | -0.136
149 | RRIRVRPPRLPRPRPRPISVPRP | -0.131
150 | RRIRVRPPRLPRPRPRPITKPRP | 0.0714

From the supplement of paper PMC9112550, “Optimization of the antimicrobial peptide Bac7 by deep mutational scanning” (BMC Biology, 2022)
